Test results as given in paper PMC9352680, “A comprehensive thermodynamic model for RNA binding by the Saccharomyces cerevisiae Pumilio protein PUF4”.

T1: PUF4 RNA-binding domain (Saccharomyces cerevisiae, UniProt P25339 537-888)
T1 sequence: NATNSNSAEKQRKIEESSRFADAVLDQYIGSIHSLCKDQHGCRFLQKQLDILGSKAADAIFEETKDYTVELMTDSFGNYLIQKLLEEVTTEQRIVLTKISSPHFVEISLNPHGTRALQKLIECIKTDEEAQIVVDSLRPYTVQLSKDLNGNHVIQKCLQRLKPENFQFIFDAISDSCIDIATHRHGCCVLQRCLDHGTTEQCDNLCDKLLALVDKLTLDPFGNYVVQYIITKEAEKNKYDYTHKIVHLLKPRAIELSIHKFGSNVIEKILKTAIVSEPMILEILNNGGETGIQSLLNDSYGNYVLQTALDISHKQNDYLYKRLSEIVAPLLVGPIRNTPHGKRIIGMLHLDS


Target: T1, PUF4 RNA-binding domain
Assay: Mg; RNA-MaP; 20 mM Na-HEPES pH 7.4, 30 mM KOAc, 0.75 mM MgCl2, 0.1% Tween-20, 5% glycerol, 0.1 mg/mL BSA, 2 mM DTT; 25 C; 0.0125-409.6 nM protein
Settings: tags: N-His6-TEV cleaved; C-SNAP kept, Cy3B-labelled; label: tethered on chip by stalled RNA polymerase

| Binder | Kd [nM] |
| --- | --- |
| UCUCUUCGUAUAUUGUCUCUU (ssRNA) [Ib_S1_P4E.1_K4.1_C4.1_H4.1_[T1C]_A4.1_F4.1_[A9G]_T4.1] | 663 |
| Ic_S2_P5E.1_K5.1_C5.1_H5.1_A5.1_[T6A]_F5.1_[T8C]_[T9G]_[A10T]_T5.1 (ssRNA) RNA: UUUGAUUAAUAUGAUAUCGUUCUUUCUUGUAUAACGUUUCUUUCUCGAUAUCAUAUUAAUCUUU | 15 |
| Ic_S2_P5E.1_K5.1_C5.1_H5.1_A5.1_[T5A]_[T6C]_[A7C]_F5.1_[T8A]_[A10G]_T5.1 (ssRNA) RNA: UUUGAUUAAUAUGAUAUCGUUCUUUCUUGUAACCAUGUUCUUUCUCGAUAUCAUAUUAAUCUUU | 751 |
| Ic_S2_P5E.1_K5.1_C5.1_H5.1_A5.1_[T5C]_[A7G]_F5.1_[T9A]_[A10T]_T5.1 (ssRNA) RNA: UUUGAUUAAUAUGAUAUCGUUCUUUCUUGUACUGUAUUUCUUUCUCGAUAUCAUAUUAAUCUUU | 2.45 |
| Ic_S2_P5E.1_K5.1_C5.1_H5.1_A5.1_[T5C]_[T6A]_[A7C]_F5.1_[T8A]_[A10G]_T5.1 (ssRNA) RNA: UUUGAUUAAUAUGAUAUCGUUCUUUCUUGUACACAUGUUCUUUCUCGAUAUCAUAUUAAUCUUU | 114 |
| Ic_S2_P5E.1_K5.1_C5.1_H5.1_A5.1_[T5C]_[A7T]_F5.1_[T8A]_[T9C]_[A10G]_T5.1 (ssRNA) RNA: UUUGAUUAAUAUGAUAUCGUUCUUUCUUGUACUUACGUUCUUUCUCGAUAUCAUAUUAAUCUUU | 623 |
| Ic_S2_P5E.1_K5.1_C5.1_H5.1_A5.1_[T5C]_[T6C]_F5.1_[T8C]_[T9C]_[A10G]_T5.1 (ssRNA) RNA: UUUGAUUAAUAUGAUAUCGUUCUUUCUUGUACCACCGUUCUUUCUCGAUAUCAUAUUAAUCUUU | 619 |
| Ic_S2_P5E.1_K5.1_C5.1_H5.1_A5.1_[T6G]_[A7T]_F5.1_[T8G]_[T9C]_[A10C]_T5.1 (ssRNA) RNA: UUUGAUUAAUAUGAUAUCGUUCUUUCUUGUAUGUGCCUUCUUUCUCGAUAUCAUAUUAAUCUUU | 49 |
| Ic_S2_P5E.1_K5.1_C5.1_H5.1_A5.1_[T6C]_[A7T]_F5.1_[T8A]_T5.1 (ssRNA) RNA: UUUGAUUAAUAUGAUAUCGUUCUUUCUUGUAUCUAUAUUCUUUCUCGAUAUCAUAUUAAUCUUU | 3.38 |
| Ic_S2_P5E.1_K5.1_C5.1_H5.1_A5.1_[T6A]_[A7T]_F5.1_[T9C]_[A10C]_T5.1 (ssRNA) RNA: UUUGAUUAAUAUGAUAUCGUUCUUUCUUGUAUAUUCCUUCUUUCUCGAUAUCAUAUUAAUCUUU | 2.26 |
| Ic_S2_P5E.1_K5.1_C5.1_H5.1_A5.1_[T5A]_F5.1_[T8A]_[A10G]_T5.1 (ssRNA) RNA: UUUGAUUAAUAUGAUAUCGUUCUUUCUUGUAAUAAUGUUCUUUCUCGAUAUCAUAUUAAUCUUU | 183 |
| Ic_S2_P5E.1_K5.1_C5.1_H5.1_A5.1_[T5C]_[T6A]_[A7G]_F5.1_[T9C]_[A10C]_T5.1 (ssRNA) RNA: UUUGAUUAAUAUGAUAUCGUUCUUUCUUGUACAGUCCUUCUUUCUCGAUAUCAUAUUAAUCUUU | 13.5 |
| Ic_S2_P5E.1_K5.1_C5.1_H5.1_A5.1_[T5A]_[A7T]_F5.1_[T9C]_[A10G]_T5.1 (ssRNA) RNA: UUUGAUUAAUAUGAUAUCGUUCUUUCUUGUAAUUUCGUUCUUUCUCGAUAUCAUAUUAAUCUUU | 108 |
| Ic_S2_P5E.1_K5.1_C5.1_H5.1_A5.1_[T6A]_F5.1_[T8A]_[T9A]_T5.1 (ssRNA) RNA: UUUGAUUAAUAUGAUAUCGUUCUUUCUUGUAUAAAAAUUCUUUCUCGAUAUCAUAUUAAUCUUU | 34.6 |
| Ic_S2_P5E.1_K5.1_C5.1_H5.1_A5.1_[T6A]_[A7C]_F5.1_[T8C]_[T9C]_[A10G]_T5.1 (ssRNA) RNA: UUUGAUUAAUAUGAUAUCGUUCUUUCUUGUAUACCCGUUCUUUCUCGAUAUCAUAUUAAUCUUU | 69.2 |
| Ic_S2_P5E.1_K5.1_C5.1_H5.1_A5.1_[T5C]_[A7G]_F5.1_[T9G]_[A10T]_T5.1 (ssRNA) RNA: UUUGAUUAAUAUGAUAUCGUUCUUUCUUGUACUGUGUUUCUUUCUCGAUAUCAUAUUAAUCUUU | 50.8 |
| Ic_S2_P5E.1_K5.1_C5.1_H5.1_A5.1_[T5A]_[T6C]_[A7T]_F5.1_[T9G]_[A10T]_T5.1 (ssRNA) RNA: UUUGAUUAAUAUGAUAUCGUUCUUUCUUGUAACUUGUUUCUUUCUCGAUAUCAUAUUAAUCUUU | 304 |
| Ic_S2_P5E.1_K5.1_C5.1_H5.1_A5.1_[T6C]_[A7G]_F5.1_[T8A]_[A10C]_T5.1 (ssRNA) RNA: UUUGAUUAAUAUGAUAUCGUUCUUUCUUGUAUCGAUCUUCUUUCUCGAUAUCAUAUUAAUCUUU | 1490 |

| Binder | Kd [nM] |
| --- | --- |
| Ic_S2_P5E.1_K5.1_C5.1_H5.1_A5.1_[T5A]_[A7G]_F5.1_[T8C]_[A10T]_T5.1 (ssRNA) RNA: UUUGAUUAAUAUGAUAUCGUUCUUUCUUGUAAUGCUUUUCUUUCUCGAUAUCAUAUUAAUCUUU | 423 |
| Ic_S2_P5E.1_K5.1_C5.1_H5.1_A5.1_[T5C]_[T6C]_[A7C]_F5.1_[A10T]_T5.1 (ssRNA) RNA: UUUGAUUAAUAUGAUAUCGUUCUUUCUUGUACCCUUUUUCUUUCUCGAUAUCAUAUUAAUCUUU | 8.63 |
| Ic_S2_P5E.1_K5.1_C5.1_H5.1_A5.1_[A7C]_F5.1_[T8G]_[A10T]_T5.1 (ssRNA) RNA: UUUGAUUAAUAUGAUAUCGUUCUUUCUUGUAUUCGUUUUCUUUCUCGAUAUCAUAUUAAUCUUU | 67.8 |
| Ic_S2_P5E.1_K5.1_C5.1_H5.1_A5.1_[T6C]_F5.1_[T9G]_[A10C]_T5.1 (ssRNA) RNA: UUUGAUUAAUAUGAUAUCGUUCUUUCUUGUAUCAUGCUUCUUUCUCGAUAUCAUAUUAAUCUUU | 12.1 |
| Ic_S2_P5E.1_K5.1_C5.1_H5.1_A5.1_[T6C]_[A7G]_F5.1_[T8C]_[T9C]_T5.1 (ssRNA) RNA: UUUGAUUAAUAUGAUAUCGUUCUUUCUUGUAUCGCCAUUCUUUCUCGAUAUCAUAUUAAUCUUU | 844 |
| Ic_S2_P5E.1_K5.1_C5.1_H5.1_A5.1_[T5C]_[T6C]_[A7C]_F5.1_[T8A]_[T9G]_[A10C]_T5.1 (ssRNA) RNA: UUUGAUUAAUAUGAUAUCGUUCUUUCUUGUACCCAGCUUCUUUCUCGAUAUCAUAUUAAUCUUU | 768 |
| Ic_S2_P5E.1_K5.1_C5.1_H5.1_A5.1_[T5C]_[T6A]_F5.1_[T9C]_[A10T]_T5.1 (ssRNA) RNA: UUUGAUUAAUAUGAUAUCGUUCUUUCUUGUACAAUCUUUCUUUCUCGAUAUCAUAUUAAUCUUU | 7.59 |
| Ic_S2_P5E.1_K5.1_C5.1_H5.1_A5.1_[T5C]_[T6A]_[A7T]_F5.1_[T9A]_[A10C]_T5.1 (ssRNA) RNA: UUUGAUUAAUAUGAUAUCGUUCUUUCUUGUACAUUACUUCUUUCUCGAUAUCAUAUUAAUCUUU | 0.894 |
| Ic_S2_P5E.1_K5.1_C5.1_H5.1_A5.1_[T5A]_[A7T]_F5.1_[T9G]_[A10C]_T5.1 (ssRNA) RNA: UUUGAUUAAUAUGAUAUCGUUCUUUCUUGUAAUUUGCUUCUUUCUCGAUAUCAUAUUAAUCUUU | 70.7 |
| Ic_S2_P5E.1_K5.1_C5.1_H5.1_A5.1_[A7C]_F5.1_[T8C]_[T9A]_T5.1 (ssRNA) RNA: UUUGAUUAAUAUGAUAUCGUUCUUUCUUGUAUUCCAAUUCUUUCUCGAUAUCAUAUUAAUCUUU | 622 |
| Ic_S2_P5E.1_K5.1_C5.1_H5.1_A5.1_[T5G]_[A7C]_F5.1_[T8G]_[T9C]_[A10C]_T5.1 (ssRNA) RNA: UUUGAUUAAUAUGAUAUCGUUCUUUCUUGUAGUCGCCUUCUUUCUCGAUAUCAUAUUAAUCUUU | 1490 |
| Ic_S2_P5E.1_K5.1_C5.1_H5.1_A5.1_[T5G]_[A7C]_F5.1_[T8A]_[A10G]_T5.1 (ssRNA) RNA: UUUGAUUAAUAUGAUAUCGUUCUUUCUUGUAGUCAUGUUCUUUCUCGAUAUCAUAUUAAUCUUU | 450 |
| Ic_S2_P5E.1_K5.1_C5.1_H5.1_A5.1_[T5C]_F5.1_[T8C]_[T9C]_[A10C]_T5.1 (ssRNA) RNA: UUUGAUUAAUAUGAUAUCGUUCUUUCUUGUACUACCCUUCUUUCUCGAUAUCAUAUUAAUCUUU | 245 |
| Ic_S2_P5E.1_K5.1_C5.1_H5.1_A5.1_[T5C]_[T6G]_[A7T]_F5.1_[T8G]_[A10T]_T5.1 (ssRNA) RNA: UUUGAUUAAUAUGAUAUCGUUCUUUCUUGUACGUGUUUUCUUUCUCGAUAUCAUAUUAAUCUUU | 22.9 |
| Ic_S2_P5E.1_K5.1_C5.1_H5.1_A5.1_[T5C]_[T6C]_F5.1_[T9C]_[A10C]_T5.1 (ssRNA) RNA: UUUGAUUAAUAUGAUAUCGUUCUUUCUUGUACCAUCCUUCUUUCUCGAUAUCAUAUUAAUCUUU | 8.45 |
| UCUCUUAGUAUAUUGUCUCUU (ssRNA) [Ib_S1_P4E.1_K4.1_C4.1_H4.1_[T1A]_A4.1_F4.1_[A9G]_T4.1] | 631 |
| UCUCUUGGUAUAUUCUCUCUU (ssRNA) [Ib_S1_P4E.1_K4.1_C4.1_H4.1_[T1G]_A4.1_F4.1_[A9C]_T4.1] | > 2300 |
| UCUCUUUUUAUAUUAUCUCUU (ssRNA) [Ia_S1_P4E.1_K4.1_C4.1_H4.1_[G2T]_A4.1_F4.1_T4.1] | 655 |
